The values that follow come from the RNAGym collection of RNA variant scans (doi:10.7554/elife.90254).

The labels stand for the following.
B1: LINE1-mini (parent)
chain: GGCAGAGCUCAACACAGCGUGGCAAAGUGGCUGUGGCUAGACUGCC

This data set covers variants of B1. Kind of data set: self-cleavage, relative activity (ratio to wild type); higher = more cleavage; in vitro, sequencing; the parent is a self-cleaving ribozyme.
On to G30U G40U, for which the self-cleavage stood at 0.13.
For the variant G29C G40C, the self-cleavage was determined as 0.05.
Consider G29C G40A, for which the self-cleavage was found to be 0.07.
For G29C G40U, the self-cleavage is 0.07.
For the variant G29U U38A, the self-cleavage was 0.4.
As for G29U U38G, the self-cleavage is 0.02.
As for G29U U38C, the self-cleavage came out at 0.47.
As for G29A U38C, the self-cleavage stood at 0.44.
On to G29A U38G, for which the self-cleavage is 0.01.
For the variant G29A U38A, the self-cleavage was found to be 0.28.
Take G29A G33A: the self-cleavage is 0.12.
With G29A G33C, the self-cleavage is 0.06.
For the variant G29A G33U, the self-cleavage stood at 0.12.
The result for G29U C31G reads 0.13.
In the case of G29U C31A, the self-cleavage is 0.15.
In the case of G29U C31U it was 0.19; in that of G30C U32G, 0.3.
For G30C U32A, the self-cleavage is 0.26.
Turning to G30C U32C, the self-cleavage was 0.09.
Turning to G29C A41U, the self-cleavage is 0.32.
The result for G29C A41C reads 0.04; that for G29C A41G, 0.21.
As to G30U A41G, the self-cleavage was 0.35.
As to G30U A41C, the self-cleavage is 0.06.
In the case of G30U A41U, the self-cleavage is 0.64.
The result for G30C G35C reads 0.09; that for G30C G35A, 0.09.
For the variant G30C G35U, the self-cleavage came out at 0.19.
As to G29C G30A, the self-cleavage came out at 1.73.
Regarding G29C G30U, the self-cleavage worked out at 0.67.
For G29C G30C, the self-cleavage was 0.23.
In the case of G29U G33A it was 0.1.
As to G29U G33C, the self-cleavage is 0.06.
On to G29U G33U, for which the self-cleavage was 0.12.
G29U C46G: the self-cleavage worked out at 0.93.
The result for G29U C46U reads 1.51; that for G29U C46A, 0.82.
For G29U C45U, the self-cleavage was 1.99.
For the variant G29U C45A, the self-cleavage was determined as 0.63.
In the case of G29U C45G it was 0.78; in that of G29A A39U, 0.93; in that of G29A A39C, 0.21.
Take G29A A39G: the self-cleavage was 0.07.
With U28G G44C, the self-cleavage turned out to be 0.54.
On to U28G G44A, for which the self-cleavage worked out at 0.28.
The result for U28G G44U reads 0.23.
G30U G33A: the self-cleavage was 0.08.
With G30U G33U, the self-cleavage was found to be 0.08.
Take G30U G33C: the self-cleavage was determined as 0.11.
For the variant G29C C31G, the self-cleavage came out at 0.34.
Regarding G29C C31A, the self-cleavage stood at 1.34.
Take G29C C31U: the self-cleavage stood at 0.93.
Turning to U28G G35U, the self-cleavage amounted to 0.09.
As for G29A U32G, the self-cleavage was 0.46.
As for G29A U32C, the self-cleavage came to 0.18.
Take G29A U32A: the self-cleavage amounted to 0.4.
In the case of G29U C37G it was 0.04; in that of G29U C37A, 0.13.
In the case of G29U C37U it was 0.05; in that of G29C A39U, 0.15; in that of G29C A39C, 0.06.
For G29C A39G, the self-cleavage was determined as 0.03.
In the case of G30U C42U it was 0.32.
As to G30U C42A, the self-cleavage was found to be 0.12.
With G30U C42G, the self-cleavage stood at 0.05.
In the case of G30U U43G it was 0.2; in that of G30U U43C, 0.1; in that of G30U U43A, 0.11.
Turning to G29A U43C, the self-cleavage is 0.08.
On to G29A U43G, for which the self-cleavage is 0.04.
Consider G29A U43A, for which the self-cleavage is 0.16.
In the case of G29A C46G it was 0.74; in that of G29A C46U, 0.82; in that of G29A C46A, 0.89.
For G30A C31U, the self-cleavage was determined as 0.14.
Turning to G30A C31A, the self-cleavage worked out at 0.4.
With G30A C31G, the self-cleavage is 0.09.
The result for G29A C37A reads 0.1.
In the case of G29A C37G it was 0.02.
Regarding G29A C37U, the self-cleavage turned out to be 0.05.
For G29C C46A, the self-cleavage turned out to be 0.68.
As for G29C C46U, the self-cleavage was found to be 0.6.
With G29C C46G, the self-cleavage was found to be 0.52.
As for C31A A41C, the self-cleavage is 0.03.
The result for C31A A41U reads 0.09; that for C31A A41G, 0.08.
The result for G30U G35C reads 0.07; that for G30U G35A, 0.05.
In the case of G30U G35U it was 0.08; in that of G29C G36C, 0.05; in that of G29C G36A, 0.02.
As for G29C G36U, the self-cleavage was determined as 0.04.
On to G29C U32C, for which the self-cleavage stood at 0.7.
As to G29C U32G, the self-cleavage was 0.2.
In the case of G29C U32A it was 0.31.
Consider U28G G40U, for which the self-cleavage stood at 0.09.
With U28G G40A, the self-cleavage was found to be 0.12.
Take U28G G40C: the self-cleavage came to 0.07.
G29A A41C: the self-cleavage came to 0.05.
Consider G29A A41U, for which the self-cleavage was 0.74.
With G29A A41G, the self-cleavage is 0.32.
The result for G30A G44U reads 0.18.
On to G30A G44A, for which the self-cleavage is 0.64.
Turning to G30A G44C, the self-cleavage was 0.56.
With G30U C37A, the self-cleavage is 0.08.
Consider G30U C37G, for which the self-cleavage was determined as 0.05.
For the variant G30U C37U, the self-cleavage was determined as 0.05.
G29U G35U: the self-cleavage worked out at 0.14.
For G29U G35A, the self-cleavage is 0.32.
The result for G29U G35C reads 0.08.
G30U G44A: the self-cleavage was 0.42.
In the case of G30U G44U, the self-cleavage was 0.21.
Take G30U G44C: the self-cleavage worked out at 0.16.
With G29U U43C, the self-cleavage turned out to be 0.08.
On to G29U U43A, for which the self-cleavage was 0.2.
Consider G29U U43G, for which the self-cleavage stood at 0.
G30A U32C: the self-cleavage came to 0.21.
Consider G30A U32A, for which the self-cleavage stood at 0.13.
On to G30A U32G, for which the self-cleavage was 0.41.
Regarding G30A C37U, the self-cleavage is 0.11.
As to G30A C37A, the self-cleavage stood at 0.05.
On to G30A C37G, for which the self-cleavage amounted to 0.06.
Consider G29U G40A, for which the self-cleavage was 0.15.
Turning to G29U G40C, the self-cleavage turned out to be 0.14.
In the case of G29U G40U it was 0.18.
Regarding U28G U38C, the self-cleavage is 1.1.
On to U28G U38G, for which the self-cleavage was 0.02.
U28G U38A: the self-cleavage turned out to be 0.19.
For G29A U34C, the self-cleavage came to 0.08.
With G29A U34A, the self-cleavage came out at 0.19.
Take G29A U34G: the self-cleavage is 0.38.
For the variant G30U U34C, the self-cleavage amounted to 0.05.
Turning to G30U U34A, the self-cleavage was determined as 0.05.
Consider G30U U34G, for which the self-cleavage amounted to 0.09.
In the case of G30C U43G it was 0.02; in that of G30C U43C, 0.25; in that of G30C U43A, 0.06.
In the case of G30C C37G it was 0.07; in that of G30C C37U, 0.1.
Take G30C C37A: the self-cleavage turned out to be 0.07.
In the case of G30C C42U, the self-cleavage was determined as 0.18.
Consider G30C C42A, for which the self-cleavage is 0.12.
In the case of G30C C42G it was 0.04; in that of G30C G36U, 0.11.
As to G30C G36A, the self-cleavage worked out at 0.1.
With G30C G36C, the self-cleavage is 0.06.
Regarding G30A G36C, the self-cleavage worked out at 0.07.
The result for G30A G36A reads 0.43; that for G30A G36U, 0.1.
For the variant G29A G36C, the self-cleavage turned out to be 0.09.
For the variant G29A G36U, the self-cleavage stood at 0.09.
For G29A G36A, the self-cleavage is 0.11.
Regarding G30A C46G, the self-cleavage amounted to 1.5.
The result for G30A C46U reads 1.33.
Consider G30A C46A, for which the self-cleavage was 1.15.
Consider G30A U38A, for which the self-cleavage stood at 0.72.
For G30A U38C, the self-cleavage was determined as 0.64.
As to G30A U38G, the self-cleavage was found to be 0.03.
With C31A C37U, the self-cleavage turned out to be 0.09.
For the variant C31A C37G, the self-cleavage came out at 0.07.
The result for C31A C37A reads 0.08.
For G29U A39G, the self-cleavage was found to be 0.06.
In the case of G29U A39U it was 0.7.
As to G29U A39C, the self-cleavage was 0.21.
For the variant G30A A41G, the self-cleavage worked out at 0.27.
Regarding G30A A41U, the self-cleavage amounted to 0.6.
The result for G30A A41C reads 0.07.
